Patent publication US20110251266, “APTAMER FOR NGF AND USE THEREOF” (Shionogi & Co., Ltd., published 2011)

Target: beta-NGF (nerve growth factor) (Homo sapiens, UniProt P01138 P01138:122-241)
Test: cell_activity; Neuroscreen-1 neurite outgrowth; 92% inhibition at 300 nM (Table 5)
Details: tags: R&D Systems human NGF; chain copies: 2

beta-NGF (nerve growth factor), sequence (P01138 122-241, one chain of several): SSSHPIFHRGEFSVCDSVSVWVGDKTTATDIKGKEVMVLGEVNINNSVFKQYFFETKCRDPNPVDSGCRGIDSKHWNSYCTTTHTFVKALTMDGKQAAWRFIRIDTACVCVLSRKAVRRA

GGGAAGCCUGUGGAGCUGCAGGAUGAAAAAAACCCAAA (ssRNA, 2'-F pyrimidines) [SEQ35 aptamer]
IC50: 91.5 nM
